From the supplement of paper PMC11246515
± gives the standard deviation of the averaged measurements.

Experiment: total protein half-life in vivo (active degradation + dilution); higher = more stable protein
[1] = E. coli NCM3722 delta-clpP delta-lon delta-hslV, growth: N-lim chemostat, doubling time 6 h
[2] = E. coli NCM3722 delta-clpP, growth: N-lim chemostat, doubling time 6 h
[3] = E. coli NCM3722 delta-hslV, growth: N-lim chemostat, doubling time 6 h
[4] = E. coli NCM3722 delta-lon, growth: N-lim chemostat, doubling time 6 h
[5] = E. coli NCM3722 delta-smpB, growth: N-lim chemostat, doubling time 6 h
[6] = wild type E. coli NCM3722, growth: C-lim chemostat, doubling time 3 h
[7] = wild type E. coli NCM3722, growth: C-lim chemostat, doubling time 6 h
[8] = wild type E. coli NCM3722, growth: C-lim chemostat, doubling time 12 h
[9] = wild type E. coli NCM3722, growth: N-lim chemostat, doubling time 6 h
[10] = wild type E. coli NCM3722, growth: P-lim chemostat, doubling time 6 h
[11] = wild type E. coli NCM3722, growth: P-lim chemostat, doubling time 12 h
[12] = wild type E. coli NCM3722, growth: N-lim chemostat, doubling time 12 h

## MMKTVKHLLCCAIAASALISTGVHAASWKDALSSAASELGNQNSTTQEGGWSLASLTNLLSSGNQALSADNMNNAAGILQYCAKQKLASVTDAENIKNQVLEKLGLNSEEQKEDTNYLDGIQGLLKTKDGQQLNLDNIGTTPLAEKVKTKACDLVLKQGLNFIS
[1]
  total protein half-life in vivo: 2.77 ± 0.018 h
[2]
  total protein half-life in vivo: 2.37 h
[3]
  total protein half-life in vivo: 2.68 h
[4]
  total protein half-life in vivo: 3.02 ± 0.12 h
[5]
  total protein half-life in vivo: 2.56 ± 0.057 h
[6]
  total protein half-life in vivo: 2.22 ± 0.24 h
[7]
  total protein half-life in vivo: 3.873 ± 0.035 h
[8]
  total protein half-life in vivo: 3.5 h
[9]
  total protein half-life in vivo: 2.1 h
[10]
  total protein half-life in vivo: 3.43 h
[11]
  total protein half-life in vivo: 3.72 ± 0.56 h

## MMMGEVQSLPSAGLHPALQDALTLALAARPQEKAPGRYELQGDNIFMNVMTFNTQSPVEKKAELHEQYIDIQLLLNGEERILFGMAGTARQCEEFHHEDDYQLCSTIDNEQAIILKPGMFAVFMPGEPHKPGCVVGEPGEIKKVVVKVKADLMA
[1]
  total protein half-life in vivo: 5.11 ± 0.56 h
[2]
  total protein half-life in vivo: 5.65 h
[3]
  total protein half-life in vivo: 4.7878 ± 0.0042 h
[4]
  total protein half-life in vivo: 5.28 h
[5]
  total protein half-life in vivo: 4.8 ± 0.44 h
[6]
  total protein half-life in vivo: 2.61 ± 0.37 h
[7]
  total protein half-life in vivo: 5.51 ± 0.72 h
[8]
  total protein half-life in vivo: 9.27 ± 2.2 h
[12]
  total protein half-life in vivo: 7.67 h
[10]
  total protein half-life in vivo: 4.2 ± 0.51 h
[11]
  total protein half-life in vivo: 10.3 ± 0.17 h

## MMNDGKQQSTFLFHDYETFGTHPALDRPAQFAAIRTDSEFNVIGEPEVFYCKPADDYLPQPGAVLITGITPQEARAKGENEAAFAARIHSLFTVPKTCILGYNNVRFDDEVTRNIFYRNFYDPYAWSWQHDNSRWDLLDVMRACYALRPEGINWPENDDGLPSFRLEHLTKANGIEHSNAHDAMADVYATIAMAKLVKTRQPRLFDYLFTHRNKHKLMALIDVPQMKPLVHVSGMFGAWRGNTSWVAPLAWHPENRNAVIMVDLAGDISPLLELDSDTLRERLYTAKTDLGDNAAVPVKLVHINKCPVLAQANTLRPEDADRLGINRQHCLDNLKILRENPQVREKVVAIFAEAEPFTPSDNVDAQLYNGFFSDADRAAMKIVLETEPRNLPALDITFVDKRIEKLLFNYRARNFPGTLDYAEQQRWLEHRRQVFTPEFLQGYADELQMLVQQYADDKEKVALLKALWQYAEEIV
[1]
  total protein half-life in vivo: 5.14 ± 0.17 h
[2]
  total protein half-life in vivo: 4.99 ± 0.24 h
[3]
  total protein half-life in vivo: 4.41 ± 0.22 h
[5]
  total protein half-life in vivo: 3.9722 ± 0.0028 h
[6]
  total protein half-life in vivo: 3.12 ± 0.044 h
[7]
  total protein half-life in vivo: 5.87 ± 0.28 h
[8]
  total protein half-life in vivo: 9.97 ± 1.4 h
[9]
  total protein half-life in vivo: 4.297 ± 0.027 h
[12]
  total protein half-life in vivo: 6.577 ± 0.033 h
[10]
  total protein half-life in vivo: 6.73 ± 0.97 h
[11]
  total protein half-life in vivo: 12.3 ± 0.74 h

## MMNNKVSFTNSNNPTISLSAVIYFPPKFDETRQYQAIVLSHPGGGVKEQTAGTYAKKLAEKGFVTIAYDASYQGESGGEPRQLENPYIRTEDISAVIDYLTTLSYVDNTRIGAMGICAGAGYTANAAIQDRRIKAIGTVSAVNIGSIFRNGWENNVKSIDALPYVEAGSNARTSDISSGEYAIMPLAPMKESDAPNEELRQAWEYYHTPRAQYPTAPGYATLRSLNQIITYDAYHMAEVYLTQPTQIVAGSQAGSKWMSDDLYDRASSQDKRYHIVEGANHMDLYDGKAYVAEAISVLAPFFEETL
[1]
  total protein half-life in vivo: 6.23 ± 1.9 h
[2]
  total protein half-life in vivo: 4.63 ± 0.35 h
[3]
  total protein half-life in vivo: 4.23 ± 0.18 h
[5]
  total protein half-life in vivo: 4.02 ± 0.44 h
[7]
  total protein half-life in vivo: 6.58 ± 0.55 h
[8]
  total protein half-life in vivo: 11.2 ± 1.6 h
[9]
  total protein half-life in vivo: 4.088 ± 0.028 h
[12]
  total protein half-life in vivo: 6.51 ± 0.44 h
[10]
  total protein half-life in vivo: 6.21 ± 0.18 h
[11]
  total protein half-life in vivo: 13.7 ± 2.8 h

## MMNPLIIKLGGVLLDSEEALERLFSALVNYRESHQRPLVIVHGGGCVVDELMKGLNLPVKKKNGLRVTPADQIDIITGALAGTANKTLLAWAKKHQIAAVGLFLGDGDSVKVTQLDEELGHVGLAQPGSPKLINSLLENGYLPVVSSIGVTDEGQLMNVNADQAATALAATLGADLILLSDVSGILDGKGQRIAEMTAAKAEQLIEQGIITDGMIVKVNAALDAARTLGRPVDIASWRHAEQLPALFNGMPMGTRILA [P0A6C8]
[1]
  total protein half-life in vivo: 4.97 ± 0.82 h
[2]
  total protein half-life in vivo: 3.77 ± 0.19 h
[3]
  total protein half-life in vivo: 3.36 ± 0.25 h
[4]
  total protein half-life in vivo: 4.45 ± 0.17 h
[5]
  total protein half-life in vivo: 3.02 ± 0.15 h
[6]
  total protein half-life in vivo: 2.84 ± 0.045 h
[7]
  total protein half-life in vivo: 5.19 ± 0.41 h
[8]
  total protein half-life in vivo: 10.3 ± 3.4 h
[9]
  total protein half-life in vivo: 3.404 ± 0.033 h
[12]
  total protein half-life in vivo: 4.813 ± 0.046 h
[10]
  total protein half-life in vivo: 4.58 ± 0.39 h
[11]
  total protein half-life in vivo: 7.92 ± 0.16 h

## MMNSTNKLSVIIPLYNAGDDFRTCMESLITQTWTALEIIIINDGSTDNSVEIAKYYAENYPHVRLLHQANAGASVARNRGIEVATGKYVAFVDADDEVYPTMYETLMTMALEDDLDVAQCNADWCFRETGETWQSIPTDRLRSTGVLTGPDWLRMGLSSRRWTHVVWMGVYRRDVIVKNNIKFIAGLHHQDIVWTTEFMFNALRARYTEQSLYKYYLHNTSVSRLHRQGNKNLNYQRHYIKITRLLEKLNRNYADKIMIYPEFHQQITYEALRVCHAVRKEPDILTRQRMIAEIFTSGMYKRLITNVRSVKVGYQALLWSFRLWQWRDKTRSHHRITRSAFNLR
[1]
  total protein half-life in vivo: 5.55 ± 0.4 h
[2]
  total protein half-life in vivo: 0.858 h
[5]
  total protein half-life in vivo: 0.809 ± 0.17 h
[10]
  total protein half-life in vivo: 0.32 ± 0.2 h
[11]
  total protein half-life in vivo: 0.789 ± 0.74 h

## MMPQSLPDTTTPKRRFRWPTGMPQLVALLLVLLVDSLVAPHFWQVVLQDGRLFGSPIDILNRAAPVALLAIGMTLVIATGGIDLSVGAVMAIAGATTAAMTVAGFSLPIVLLSALGTGILAGLWNGILVAILKIQPFVATLILMVAGRGVAQLITAGQIVTFNSPDLSWFGSGSLLFLPTPVIIAVLTLILFWLLTRKTALGMFIEAVGINIRAAKNAGVNTRIIVMLTYVLSGLCAAIAGIIVAADIRGADANNAGLWLELDAILAVVIGGGSLMGGRFNLLLSVVGALIIQGMNTGILLSGFPPEMNQVVKAVVVLCVLIVQSQRFISLIKGVRSRDKT
[8]
  total protein half-life in vivo: 8.92 h

## MMQPSIKPADEHSAGDIIARIGSLTRMLRDSLRELGLDQAIAEAAEAIPDARDRLYYVVQMTAQAAERALNSVEASQPHQDQMEKSAKALTQRWDDWFADPIDLADARELVTDTRQFLADVPAHTSFTNAQLLEIMMAQDFQDLTGQVIKRMMDVIQEIERQLLMVLLENIPEQESRPKRENQSLLNGPQVDTSKAGVVASQDQVDDLLDSLGF [P0A9H9]
[8]
  total protein half-life in vivo: 2.6 h

## MMQTVLAKIVADKAIWVEARKQQQPLASFQNEVQPSTRHFYDALQGARTAFILECKKASPSKGVIRDDFDPARIAAIYKHYASAISVLTDEKYFQGSFNFLPIVSQIAPQPILCKDFIIDPYQIYLARYYQADACLLMLSVLDDDQYRQLAAVAHSLEMGVLTEVSNEEEQERAIALGAKVVGINNRDLRDLSIDLNRTRELAPKLGHNVTVISESGINTYAQVRELSHFANGFLIGSALMAHDDLHAAVRRVLLGENKVCGLTRGQDAKAAYDAGAIYGGLIFVATSPRCVNVEQAQEVMAAAPLQYVGVFRNHDIADVVDKAKVLSLAAVQLHGNEEQLYIDTLREALPAHVAIWKALSVGETLPAREFQHVDKYVLDNGQGGSGQRFDWSLLNGQSLGNVLLAGGLGADNCVEAAQTGCAGLDFNSAVESQPGIKDARLLASVFQTLRAY
[1]
  total protein half-life in vivo: 4.8 ± 0.34 h
[2]
  total protein half-life in vivo: 4.62 ± 1 h
[3]
  total protein half-life in vivo: 4.15 ± 0.2 h
[4]
  total protein half-life in vivo: 5.01 ± 0.64 h
[5]
  total protein half-life in vivo: 4.1 ± 0.18 h
[6]
  total protein half-life in vivo: 2.91 ± 0.1 h
[7]
  total protein half-life in vivo: 4.97 ± 0.14 h
[8]
  total protein half-life in vivo: 7.713 ± 0.011 h
[9]
  total protein half-life in vivo: 4 ± 0.086 h
[12]
  total protein half-life in vivo: 6.392 ± 0.053 h
[10]
  total protein half-life in vivo: 4.9 ± 0.078 h
[11]
  total protein half-life in vivo: 9.51 ± 0.49 h
